{
  "source": "patent US12630600B2",
  "about": "(MEDIMMUNE LIMITED, priority 2022, dated 2026)",
  "binders": {"B1": {"name": "Peptide 409 (peptide)", "peptide": "H[Aib]QGTFTSDVSK[αMeF]LDTK([AEEA-AEEA-γGlu-C18 diacid])RARDFVAWLL[Aib]TE-OH", "modifications": "N-terminus assumed", "SMILES": "CC(C)C[C@H](NC(=O)[C@H](Cc1c[nH]c2ccccc12)NC(=O)[C@H](C)NC(=O)[C@@H](NC(=O)[C@H](Cc1ccccc1)NC(=O)[C@H](CC(=O)O)NC(=O)[C@H](CCCNC(=N)N)NC(=O)[C@H](C)NC(=O)[C@H](CCCNC(=N)N)NC(=O)[C@H](CCCCNC(=O)COCCOCCNC(=O)COCCOCCNC(=O)CC[C@H](NC(=O)CCCCCCCCCCCCCCCCC(=O)O)C(=O)O)NC(=O)[C@@H](NC(=O)[C@H](CC(=O)O)NC(=O)[C@H](CC(C)C)NC(=O)[C@](C)(Cc1ccccc1)NC(=O)[C@H](CCCCN)NC(=O)[C@H](CO)NC(=O)[C@@H](NC(=O)[C@H](CC(=O)O)NC(=O)[C@H](CO)NC(=O)[C@@H](NC(=O)[C@H](Cc1ccccc1)NC(=O)[C@@H](NC(=O)CNC(=O)[C@H](CCC(N)=O)NC(=O)C(C)(C)NC(=O)[C@@H](N)Cc1c[nH]cn1)[C@@H](C)O)[C@@H](C)O)C(C)C)[C@@H](C)O)C(C)C)C(=O)N[C@@H](CC(C)C)C(=O)NC(C)(C)C(=O)N[C@H](C(=O)N[C@@H](CCC(=O)O)C(=O)O)[C@@H](C)O"}, "B2": {"name": "Peptide 408 (peptide)", "peptide": "H[Aib]QGTFTSDVSK[αMeF]LDTK([AEEA-AEEA-γGlu-γGlu-C20 diacid])RAQDFVRWLEA[Aib]G-OH", "modifications": "N-terminus assumed", "SMILES": "CC(C)C[C@H](NC(=O)[C@H](Cc1c[nH]c2ccccc12)NC(=O)[C@H](CCCNC(=N)N)NC(=O)[C@@H](NC(=O)[C@H](Cc1ccccc1)NC(=O)[C@H](CC(=O)O)NC(=O)[C@H](CCC(N)=O)NC(=O)[C@H](C)NC(=O)[C@H](CCCNC(=N)N)NC(=O)[C@H](CCCCNC(=O)COCCOCCNC(=O)COCCOCCNC(=O)CC[C@H](NC(=O)CC[C@H](NC(=O)CCCCCCCCCCCCCCCCCCC(=O)O)C(=O)O)C(=O)O)NC(=O)[C@@H](NC(=O)[C@H](CC(=O)O)NC(=O)[C@H](CC(C)C)NC(=O)[C@](C)(Cc1ccccc1)NC(=O)[C@H](CCCCN)NC(=O)[C@H](CO)NC(=O)[C@@H](NC(=O)[C@H](CC(=O)O)NC(=O)[C@H](CO)NC(=O)[C@@H](NC(=O)[C@H](Cc1ccccc1)NC(=O)[C@@H](NC(=O)CNC(=O)[C@H](CCC(N)=O)NC(=O)C(C)(C)NC(=O)[C@@H](N)Cc1c[nH]cn1)[C@@H](C)O)[C@@H](C)O)C(C)C)[C@@H](C)O)C(C)C)C(=O)N[C@@H](CCC(=O)O)C(=O)N[C@@H](C)C(=O)NC(C)(C)C(=O)NCC(=O)O"}, "B3": {"name": "Peptide 411 (peptide)", "peptide": "H[Aib]QGTFTSDVSK[αMeF]LDTK([AEEA-AEEA-γGlu-C18 diacid])RAQDFVAWLEAGG-OH", "modifications": "N-terminus assumed", "SMILES": "CC(C)C[C@H](NC(=O)[C@H](Cc1c[nH]c2ccccc12)NC(=O)[C@H](C)NC(=O)[C@@H](NC(=O)[C@H](Cc1ccccc1)NC(=O)[C@H](CC(=O)O)NC(=O)[C@H](CCC(N)=O)NC(=O)[C@H](C)NC(=O)[C@H](CCCNC(=N)N)NC(=O)[C@H](CCCCNC(=O)COCCOCCNC(=O)COCCOCCNC(=O)CC[C@H](NC(=O)CCCCCCCCCCCCCCCCC(=O)O)C(=O)O)NC(=O)[C@@H](NC(=O)[C@H](CC(=O)O)NC(=O)[C@H](CC(C)C)NC(=O)[C@](C)(Cc1ccccc1)NC(=O)[C@H](CCCCN)NC(=O)[C@H](CO)NC(=O)[C@@H](NC(=O)[C@H](CC(=O)O)NC(=O)[C@H](CO)NC(=O)[C@@H](NC(=O)[C@H](Cc1ccccc1)NC(=O)[C@@H](NC(=O)CNC(=O)[C@H](CCC(N)=O)NC(=O)C(C)(C)NC(=O)[C@@H](N)Cc1c[nH]cn1)[C@@H](C)O)[C@@H](C)O)C(C)C)[C@@H](C)O)C(C)C)C(=O)N[C@@H](CCC(=O)O)C(=O)N[C@@H](C)C(=O)NCC(=O)NCC(=O)O"}, "B4": {"name": "Peptide 414 (peptide)", "peptide": "H[Aib]QGTFTSDVSK[αMeF]LDKK([AEEA-AEEA-γGlu-C18 diacid])RARDFVRWLL[Aib]E-OH", "modifications": "N-terminus assumed", "SMILES": "CC(C)C[C@H](NC(=O)[C@H](Cc1c[nH]c2ccccc12)NC(=O)[C@H](CCCNC(=N)N)NC(=O)[C@@H](NC(=O)[C@H](Cc1ccccc1)NC(=O)[C@H](CC(=O)O)NC(=O)[C@H](CCCNC(=N)N)NC(=O)[C@H](C)NC(=O)[C@H](CCCNC(=N)N)NC(=O)[C@H](CCCCNC(=O)COCCOCCNC(=O)COCCOCCNC(=O)CC[C@H](NC(=O)CCCCCCCCCCCCCCCCC(=O)O)C(=O)O)NC(=O)[C@H](CCCCN)NC(=O)[C@H](CC(=O)O)NC(=O)[C@H](CC(C)C)NC(=O)[C@](C)(Cc1ccccc1)NC(=O)[C@H](CCCCN)NC(=O)[C@H](CO)NC(=O)[C@@H](NC(=O)[C@H](CC(=O)O)NC(=O)[C@H](CO)NC(=O)[C@@H](NC(=O)[C@H](Cc1ccccc1)NC(=O)[C@@H](NC(=O)CNC(=O)[C@H](CCC(N)=O)NC(=O)C(C)(C)NC(=O)[C@@H](N)Cc1c[nH]cn1)[C@@H](C)O)[C@@H](C)O)C(C)C)C(C)C)C(=O)N[C@@H](CC(C)C)C(=O)NC(C)(C)C(=O)N[C@@H](CCC(=O)O)C(=O)O"}, "B5": {"name": "Peptide 413 (peptide)", "peptide": "H[Aib]QGTFTSDVSK[αMeF]LDTK([AEEA-AEEA-γGlu-γGlu-C20 diacid])RAQDFVAWLEAGG-OH"}, "B6": {"name": "Peptide 407 (peptide)", "peptide": "H[Aib]QGTFTSDVSK[αMeF]LDTK([AEEA-AEEA-γGlu-C20 diacid])RAQDFVRWLEA[Aib]G-OH", "modifications": "N-terminus assumed", "SMILES": "CC(C)C[C@H](NC(=O)[C@H](Cc1c[nH]c2ccccc12)NC(=O)[C@H](CCCNC(=N)N)NC(=O)[C@@H](NC(=O)[C@H](Cc1ccccc1)NC(=O)[C@H](CC(=O)O)NC(=O)[C@H](CCC(N)=O)NC(=O)[C@H](C)NC(=O)[C@H](CCCNC(=N)N)NC(=O)[C@H](CCCCNC(=O)COCCOCCNC(=O)COCCOCCNC(=O)CC[C@H](NC(=O)CCCCCCCCCCCCCCCCCCC(=O)O)C(=O)O)NC(=O)[C@@H](NC(=O)[C@H](CC(=O)O)NC(=O)[C@H](CC(C)C)NC(=O)[C@](C)(Cc1ccccc1)NC(=O)[C@H](CCCCN)NC(=O)[C@H](CO)NC(=O)[C@@H](NC(=O)[C@H](CC(=O)O)NC(=O)[C@H](CO)NC(=O)[C@@H](NC(=O)[C@H](Cc1ccccc1)NC(=O)[C@@H](NC(=O)CNC(=O)[C@H](CCC(N)=O)NC(=O)C(C)(C)NC(=O)[C@@H](N)Cc1c[nH]cn1)[C@@H](C)O)[C@@H](C)O)C(C)C)[C@@H](C)O)C(C)C)C(=O)N[C@@H](CCC(=O)O)C(=O)N[C@@H](C)C(=O)NC(C)(C)C(=O)NCC(=O)O"}, "B7": {"name": "Peptide 412 (peptide)", "peptide": "H[Aib]QGTFTSDVSK[αMeF]LDTK([AEEA-AEEA-γGlu-C20 diacid])RAQDFVAWLEAGG-OH", "modifications": "N-terminus assumed", "SMILES": "CC(C)C[C@H](NC(=O)[C@H](Cc1c[nH]c2ccccc12)NC(=O)[C@H](C)NC(=O)[C@@H](NC(=O)[C@H](Cc1ccccc1)NC(=O)[C@H](CC(=O)O)NC(=O)[C@H](CCC(N)=O)NC(=O)[C@H](C)NC(=O)[C@H](CCCNC(=N)N)NC(=O)[C@H](CCCCNC(=O)COCCOCCNC(=O)COCCOCCNC(=O)CC[C@H](NC(=O)CCCCCCCCCCCCCCCCCCC(=O)O)C(=O)O)NC(=O)[C@@H](NC(=O)[C@H](CC(=O)O)NC(=O)[C@H](CC(C)C)NC(=O)[C@](C)(Cc1ccccc1)NC(=O)[C@H](CCCCN)NC(=O)[C@H](CO)NC(=O)[C@@H](NC(=O)[C@H](CC(=O)O)NC(=O)[C@H](CO)NC(=O)[C@@H](NC(=O)[C@H](Cc1ccccc1)NC(=O)[C@@H](NC(=O)CNC(=O)[C@H](CCC(N)=O)NC(=O)C(C)(C)NC(=O)[C@@H](N)Cc1c[nH]cn1)[C@@H](C)O)[C@@H](C)O)C(C)C)[C@@H](C)O)C(C)C)C(=O)N[C@@H](CCC(=O)O)C(=O)N[C@@H](C)C(=O)NCC(=O)NCC(=O)O"}, "B8": {"name": "Peptide 410 (peptide)", "peptide": "H[Aib]QGTFTSDVSK[αMeF]LDTK([AEEA-AEEA-γGlu-C20 diacid])RARDFVAWLL[Aib]TE-OH", "modifications": "N-terminus assumed", "SMILES": "CC(C)C[C@H](NC(=O)[C@H](Cc1c[nH]c2ccccc12)NC(=O)[C@H](C)NC(=O)[C@@H](NC(=O)[C@H](Cc1ccccc1)NC(=O)[C@H](CC(=O)O)NC(=O)[C@H](CCCNC(=N)N)NC(=O)[C@H](C)NC(=O)[C@H](CCCNC(=N)N)NC(=O)[C@H](CCCCNC(=O)COCCOCCNC(=O)COCCOCCNC(=O)CC[C@H](NC(=O)CCCCCCCCCCCCCCCCCCC(=O)O)C(=O)O)NC(=O)[C@@H](NC(=O)[C@H](CC(=O)O)NC(=O)[C@H](CC(C)C)NC(=O)[C@](C)(Cc1ccccc1)NC(=O)[C@H](CCCCN)NC(=O)[C@H](CO)NC(=O)[C@@H](NC(=O)[C@H](CC(=O)O)NC(=O)[C@H](CO)NC(=O)[C@@H](NC(=O)[C@H](Cc1ccccc1)NC(=O)[C@@H](NC(=O)CNC(=O)[C@H](CCC(N)=O)NC(=O)C(C)(C)NC(=O)[C@@H](N)Cc1c[nH]cn1)[C@@H](C)O)[C@@H](C)O)C(C)C)[C@@H](C)O)C(C)C)C(=O)N[C@@H](CC(C)C)C(=O)NC(C)(C)C(=O)N[C@H](C(=O)N[C@@H](CCC(=O)O)C(=O)O)[C@@H](C)O"}},
  "note": "Starred links: 1 amine or outer side, 2 acyl side, 3 side chain; linkers in the order of their positions; H or OH if unused. Non-standard residues stand in square brackets, D forms with d. Groups on a side chain read outwards from the residue. No end group written: not given here. *: point of attachment. C20 diacid = O=C(O)CCCCCCCCCCCCCCCCCCC(=O)*; C18 diacid = O=C(O)CCCCCCCCCCCCCCCCC(=O)*; γGlu = O=C(O)[C@H](CCC(=O)[*:2])N[*:1]; αMeF = C[C@](N)(Cc1ccccc1)C(=O)O; AEEA = NCCOCCOCC(=O)O; Aib = CC(C)(N)C(=O)O",
  "data": [
    {"target": "human GLP-1 receptor (human, UniProt P43220)", "experiment": "cell-based or functional assay", "units": {"cAMP production EC50": "pM"}, "values": [
      {"binder": "B1", "cAMP production EC50": 22.7},
      {"binder": "B2", "cAMP production EC50": 370},
      {"binder": "B3", "cAMP production EC50": 98.1},
      {"binder": "B4", "cAMP production EC50": 32.3},
      {"binder": "B5", "cAMP production EC50": 406},
      {"binder": "B6", "cAMP production EC50": 209},
      {"binder": "B7", "cAMP production EC50": 186},
      {"binder": "B8", "cAMP production EC50": 78}
    ]},
    {"target": "human glucagon receptor (human, UniProt P47871)", "experiment": "cell-based or functional assay", "units": {"cAMP production EC50": "pM"}, "values": [
      {"binder": "B1", "cAMP production EC50": 203},
      {"binder": "B2", "cAMP production EC50": 828},
      {"binder": "B3", "cAMP production EC50": 378},
      {"binder": "B4", "cAMP production EC50": 26.9},
      {"binder": "B5", "cAMP production EC50": 1020},
      {"binder": "B6", "cAMP production EC50": 462},
      {"binder": "B7", "cAMP production EC50": 397},
      {"binder": "B8", "cAMP production EC50": 455}
    ]}
  ]
}
